This note sets out measurements from publication PMC10275983 (Nature Communications, 2023).

No end group written: not given here.

In the assay the target is S1-RBD (ACROBiosystems SPD-C82E9) (SARS-CoV-2 (Wuhan-Hu-1 strain), UniProt P0DTC2 319-541). The assay is described as follows: SPR. To be noted: both partners purified.
Take ACANPDNPVCRFYCA (not fully specified (bridges); also: bicyclic peptide, scaffold not named) [E5 Bicycle (canonical exemplar of epitope group 5)]: the binding result was “binds”.

As for ACEYVGPMCYRLYCA (not fully specified (bridges); also: Bicycle) [E1 Bicycle (exemplar of epitope group 1)], the binding result is on record as “binds”.

Consider ACEDNDWVYCSTCA (not fully specified (bridges); also: bicyclic peptide, scaffold not named) [E3 Bicycle (exemplar of epitope group 3)], for which the binding result is “binds”. As for ACPYVAGRGTCLLCA (not fully specified (bridges); cysteine pairing not given here) [E2 Bicycle (canonical exemplar of epitope group 2)], the binding result is listed as “binds”.
